Measured values from US20240182536A1 (MURAL ONCOLOGY, published 2024).
Changes are numbered by the printed parent chain. Names and notes keep the numbering of the source.

B1: IL-18 variant G3Q, E6H, D54N, S55I, T63S, N91V (ligand)
chain: YFQKLHSKLSVIRNLNDQVLFIDQGNRPLFEDMTDSDMRDNAPRTIFIISMYKNIQPRGMAVSISVKSEKISTLSSENKIISFKEMNPPDVIKDTKSDIIFFQRSVPGHDNKMQFESSSYEGYFLASEKERDLFKLILKKEDELGDRSIMFTVQNED
B2: IL-18 variant G3Q, E6G, D54N, S55H, T63V, N91M, R104T (ligand)
chain: B1 chain with H6G, I55H, S63V, V91M, R104T
B3: IL-18 variant G3L, E6Q, D54Y, S55P, T63S, N91S, R104Q (ligand)
chain: B1 chain with Q3L, H6Q, N54Y, I55P, V91S, R104Q
B4: IL-18 variant G3D, E6Q, R27S, K53R, D54A, S55R, T63S, N91Q (ligand)
chain: B1 chain with Q3D, H6Q, R27S, K53R, N54A, I55R, V91Q
B5: IL-18 variant G3E, E6H, R27S, D54A, S55T, T63S, N91F, R104S (ligand)
chain: B1 chain with Q3E, R27S, N54A, I55T, V91F, R104S
B6: IL-18 variant G3E, E6G, N91M, R104A (ligand)
chain: B1 chain with Q3E, H6G, N54D, I55S, S63T, V91M, R104A
B7: IL-18 variant N91S, R104H (ligand)
chain: B1 chain with Q3G, H6E, N54D, I55S, S63T, V91S, R104H
B8: IL-18 variant E6G, D54A, S55K, T63S, N91K, Q114R (ligand)
chain: B1 chain with Q3G, H6G, N54A, I55K, V91K, Q114R
B9: IL-18 variant G3I, E6Q, N91M, R104Y (ligand)
chain: B1 chain with Q3I, H6Q, N54D, I55S, S63T, V91M, R104Y
B10: IL-18 variant G3Q, E6K, D54S, S55P, T63S, N91S, R104Q (ligand)
chain: B1 chain with H6K, N54S, I55P, V91S, R104Q
B11: IL-18 variant G3Y, E6N, N91Y, R104S (ligand)
chain: B1 chain with Q3Y, H6N, N54D, I55S, S63T, V91Y, R104S
B12: IL-18 variant E6D, D54T, S55W, T63S, N91S, R104T (ligand)
chain: B1 chain with Q3G, H6D, N54T, I55W, V91S, R104T
B13: IL-18 variant G3S, E6G, D54V, S55K, T63S, N91Y, R104T (ligand)
chain: B1 chain with Q3S, H6G, N54V, I55K, V91Y, R104T
B14: IL-18 variant G3Q, E6N, D54Y, S55P, T63S, N91S, R104H (ligand)
chain: B1 chain with H6N, N54Y, I55P, V91S, R104H
B15: IL-18 variant G3I, E6D, D54A, S55F, N91Y, R104H (ligand)
chain: B1 chain with Q3I, H6D, N54A, I55F, S63T, V91Y, R104H
B16: IL-18 variant G3L, E6Q, T63S, N91L, R104T (ligand)
chain: B1 chain with Q3L, H6Q, N54D, I55S, V91L, R104T

Each binder was assayed against T1, IL-18 binding protein (IL-18BP) (UniProt O95998 31-194) (assay: cell-based or functional assay).
T1 sequence (looked up): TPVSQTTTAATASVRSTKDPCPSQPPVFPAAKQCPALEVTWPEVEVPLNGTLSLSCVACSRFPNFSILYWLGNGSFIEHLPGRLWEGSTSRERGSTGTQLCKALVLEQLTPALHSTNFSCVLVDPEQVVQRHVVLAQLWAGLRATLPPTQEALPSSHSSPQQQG

Row | Binder | Activity, +100 nM BP, DF-1000002 | Activity, +100 nM BP, DF-5000003 | Activity, +100 nM BP, DF-25000004 | Ratio (-BP/+BP), DF-1000005 | Ratio (-BP/+BP), DF-5000006 | Ratio (-BP/+BP), DF-25000007
1 | B1 | 1.8 | 1.43 | 0.71 | 1.05 | 1.33 | 2.31
2 | B2 | 1.83 | 1.38 | 0.7 | 1.09 | 1.32 | 1.44
3 | B3 | 0.75 | 0.19 | 0.1 | 2.23 | 4.67 | 3.8
4 | B4 | 0.52 | 0.15 | 0.09 | 1.95 | 2.81 | 1.5
5 | B5 | 1.8 | 1.11 | 0.41 | 1.16 | 1.65 | 2.79
6 | B6 | 1.93 | 1.41 | 0.53 | 1.06 | 1.41 | 2.92
7 | B7 | 0.09 | 0.08 | 0.11 | 14.7 | 7.35 | 1.72
8 | B8 | 1.89 | 1.33 | 0.49 | 1.17 | 1.54 | 3.3
9 | B9 | 1.84 | 0.96 | 0.29 | 1.15 | 2.07 | 5.26
10 | B10 | 1.55 | 1.15 | 0.45 | 1.24 | 1.67 | 3.14
11 | B11 | 1.78 | 1.2 | 0.6 | 1.05 | 1.5 | 2.59
12 | B12 | 0.37 | 0.15 | 0.1 | 3.41 | 3.62 | 1.93
13 | B13 | 1.64 | 0.85 | 0.32 | 1.19 | 2.08 | 3.88
14 | B14 | 0.9 | 0.42 | 0.14 | 1.52 | 1.76 | 1.97
15 | B15 | 2.05 | 1.45 | 0.74 | 1.02 | 1.35 | 1.81
16 | B16 | 1.81 | 1.15 | 0.46 | 1.17 | 1.75 | 4

What follows are binders tested against T2, IL-18 receptors on HEK-Blue IL-18 reporter cells (UniProt Q13478 19-541; O95256 20-599, limits assumed) (assay: cell-based or functional assay).
T2 sequence (looked up) 1: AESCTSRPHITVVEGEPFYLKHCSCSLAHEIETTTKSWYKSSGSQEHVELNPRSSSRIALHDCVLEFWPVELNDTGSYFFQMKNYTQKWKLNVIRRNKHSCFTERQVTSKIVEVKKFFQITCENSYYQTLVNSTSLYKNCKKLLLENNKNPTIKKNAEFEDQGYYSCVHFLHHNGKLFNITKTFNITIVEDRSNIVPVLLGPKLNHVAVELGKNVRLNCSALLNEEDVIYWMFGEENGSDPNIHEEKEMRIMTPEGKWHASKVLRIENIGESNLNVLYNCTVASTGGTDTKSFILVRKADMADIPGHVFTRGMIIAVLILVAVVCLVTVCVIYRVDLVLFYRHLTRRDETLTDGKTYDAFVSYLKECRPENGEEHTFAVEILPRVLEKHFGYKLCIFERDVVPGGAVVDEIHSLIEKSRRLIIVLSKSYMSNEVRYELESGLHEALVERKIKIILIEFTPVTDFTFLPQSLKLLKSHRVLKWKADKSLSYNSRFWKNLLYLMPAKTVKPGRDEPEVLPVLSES
T2 sequence (looked up) 2: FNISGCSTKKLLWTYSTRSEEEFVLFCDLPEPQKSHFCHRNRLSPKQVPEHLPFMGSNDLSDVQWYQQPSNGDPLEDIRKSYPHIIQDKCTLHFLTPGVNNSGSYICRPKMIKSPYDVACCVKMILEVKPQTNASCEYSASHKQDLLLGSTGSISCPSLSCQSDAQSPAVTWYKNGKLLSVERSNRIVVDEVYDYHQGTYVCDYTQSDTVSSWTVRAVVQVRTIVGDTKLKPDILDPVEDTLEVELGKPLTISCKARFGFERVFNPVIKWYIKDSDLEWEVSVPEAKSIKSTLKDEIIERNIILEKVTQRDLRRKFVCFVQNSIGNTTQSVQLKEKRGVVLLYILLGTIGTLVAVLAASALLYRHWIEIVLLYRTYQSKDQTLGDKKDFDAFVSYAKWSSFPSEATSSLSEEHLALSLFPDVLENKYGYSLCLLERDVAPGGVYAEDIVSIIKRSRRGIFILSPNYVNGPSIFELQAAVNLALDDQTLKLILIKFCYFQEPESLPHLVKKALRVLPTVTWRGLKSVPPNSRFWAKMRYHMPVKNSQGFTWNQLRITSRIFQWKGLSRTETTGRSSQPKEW

Row | Binder | Activity, No BP, DF-100000 | Activity, No BP, DF-500000 | Activity, No BP, DF-2500000
17 | B1 | 1.89 | 1.9 | 1.64
18 | B2 | 1.99 | 1.82 | 1.01
19 | B3 | 1.66 | 0.9 | 0.37
20 | B4 | 1.02 | 0.41 | 0.13
21 | B5 | 2.08 | 1.83 | 1.14
22 | B6 | 2.05 | 2 | 1.54
23 | B7 | 1.34 | 0.61 | 0.19
24 | B8 | 2.2 | 2.05 | 1.61
25 | B9 | 2.12 | 2 | 1.53
26 | B10 | 1.92 | 1.92 | 1.4
27 | B11 | 1.87 | 1.79 | 1.54
28 | B12 | 1.27 | 0.55 | 0.18
29 | B13 | 1.95 | 1.77 | 1.26
30 | B14 | 1.37 | 0.75 | 0.28
31 | B15 | 2.1 | 1.96 | 1.34
32 | B16 | 2.12 | 2.01 | 1.85
